target: Karyopherin beta2 (Kapβ2), full length, wild type (human) (UniProt Q92973); assay: ITC; MBP-M9NLS(257-305) mutant titrated into full length Kapβ2
Sequence (Q92973 9-898 limits assumed): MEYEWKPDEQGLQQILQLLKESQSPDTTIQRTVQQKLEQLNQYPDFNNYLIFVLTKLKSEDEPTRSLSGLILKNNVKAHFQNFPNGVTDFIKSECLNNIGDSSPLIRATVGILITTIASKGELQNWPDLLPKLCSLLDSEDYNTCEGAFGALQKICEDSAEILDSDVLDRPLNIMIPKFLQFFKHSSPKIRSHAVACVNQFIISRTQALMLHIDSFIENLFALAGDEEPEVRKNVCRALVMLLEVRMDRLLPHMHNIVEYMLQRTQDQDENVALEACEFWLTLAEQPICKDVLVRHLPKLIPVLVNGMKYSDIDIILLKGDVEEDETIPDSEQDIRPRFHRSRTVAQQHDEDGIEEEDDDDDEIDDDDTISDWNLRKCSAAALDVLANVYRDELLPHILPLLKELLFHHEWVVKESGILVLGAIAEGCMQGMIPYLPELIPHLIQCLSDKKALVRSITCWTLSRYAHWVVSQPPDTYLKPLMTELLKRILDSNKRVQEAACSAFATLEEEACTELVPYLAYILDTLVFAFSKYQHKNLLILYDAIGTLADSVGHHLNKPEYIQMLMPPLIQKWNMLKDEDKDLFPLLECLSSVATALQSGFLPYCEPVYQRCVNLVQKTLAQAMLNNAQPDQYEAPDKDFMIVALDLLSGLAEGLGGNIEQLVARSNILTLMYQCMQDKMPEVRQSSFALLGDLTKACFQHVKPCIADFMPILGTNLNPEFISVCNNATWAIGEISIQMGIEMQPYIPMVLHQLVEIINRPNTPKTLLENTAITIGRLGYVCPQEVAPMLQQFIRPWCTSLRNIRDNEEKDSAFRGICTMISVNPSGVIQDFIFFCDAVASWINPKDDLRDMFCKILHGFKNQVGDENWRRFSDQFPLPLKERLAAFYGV

In order of falling Kd:
1. MBP-M9NLS(257-305) G274A/P288A/Y289A (from UniProt P09651 257-305)  5900 nM
2. MBP-M9NLS(257-305) G274A (from UniProt P09651 257-305)  746 nM
3. MBP-M9NLS(257-305) R284A/P288A/Y289A (from UniProt P09651 257-305)  461 nM
4. MBP-M9NLS(257-305) P288A (from UniProt P09651 257-305)  158 nM
5. MBP-M9NLS(257-305) P288A/Y289A (from UniProt P09651 257-305)  136 nM
6. MBP-M9NLS(257-305) Y289A (from UniProt P09651 257-305)  133 nM
7. MBP-M9NLS(257-305) R284A (from UniProt P09651 257-305)  92 nM
8. MBP-M9NLS(257-305) M276A (from UniProt P09651 257-305)  83 nM
9. MBP-M9NLS(257-305) P275A (from UniProt P09651 257-305)  74 nM
10. MBP-M9NLS(257-305) F273A (from UniProt P09651 257-305)  61 nM
11. MBP-M9NLS(257-305) F281A (from UniProt P09651 257-305)  56 nM

Reference: patent US20080015137A1
